According to the supplement of paper PMC6757056:
± gives the standard deviation of the averaged measurements.

B1: library; a variant is named by its letters at N, in order (parent)
chain: GCUGUCACCGGUGUAUUACCCUAGUGGUCGACCGGUCUGAUGAGUCUNNNNNNAGACGAAACAGC

Assays:
hypoxanthine [1] = variants of: B1; assay: normalized RNA/DNA level with ligand (relative to sTRSVctl = 100) (log10 (% of sTRSVctl)); ligand: hypoxanthine (xanthine aptamer); higher = less ribozyme self-cleavage, higher mRNA level; settings: ligand concentration (+) RNA-Seq: 5 mM, HEK293T, reporter: mCherry (pCS4076), ligand present: yes
How it was run: (§1)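 For each 6-well well, 4 µg of library plasmid encoding mCherry-linked ribozyme switches, or eGFP-linked ones in some ligand experiments, was transfected into HEK293T. Any ligand was added 1 h before transfection, and RNA was extracted with EDTA 72 h after it, then reverse-transcribed, amplified, barcoded and sequenced. RNA level was obtained by dividing RNA reads by DNA reads, normalizing to a spiked-in non-cleaving sequence or to the top sequences, then scaling and log-transforming. The top set was 25 sequences, scaling was ×100 with log10, and ≥100 DNA reads were required.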

hypoxanthine [2] = variants of: B1; assay: normalized RNA/DNA level without ligand (relative to sTRSVctl = 100) (log10 (% of sTRSVctl)); ligand: hypoxanthine (xanthine aptamer); higher = less ribozyme self-cleavage, higher mRNA level; settings: HEK293T, reporter: mCherry (pCS4076), ligand present: no
How it was run: as §1

Variant	normalized RNA/DNA level with ligand (log10) (hypoxanthine [1])	normalized RNA/DNA level without ligand (log10) (hypoxanthine [2])
GCUGUCACCGGUGUAUUACCCUAGUGGUCGACCGGUCUGAUGAGUCUACGCCGAGACGAAACAGC [ACGCCG]	1.873 ± 0.011	1.4 ± 0.032
GCUGUCACCGGUGUAUUACCCUAGUGGUCGACCGGUCUGAUGAGUCUACGCCUAGACGAAACAGC [ACGCCU]	1.945 ± 0.008	1.63 ± 0.068
GCUGUCACCGGUGUAUUACCCUAGUGGUCGACCGGUCUGAUGAGUCUACGCCAAGACGAAACAGC [ACGCCA]	1.95 ± 0.045	1.81 ± 0.019
GCUGUCACCGGUGUAUUACCCUAGUGGUCGACCGGUCUGAUGAGUCUACGCCCAGACGAAACAGC [ACGCCC]	1.94 ± 0.026	1.875 ± 0.0043
GCUGUCACCGGUGUAUUACCCUAGUGGUCGACCGGUCUGAUGAGUCUCCGAUGAGACGAAACAGC [CCGAUG]	1.82 ± 0.064	1.42 ± 0.049
GCUGUCACCGGUGUAUUACCCUAGUGGUCGACCGGUCUGAUGAGUCUACGCACAGACGAAACAGC [ACGCAC]	1.89 ± 0.022	1.7 ± 0.041
GCUGUCACCGGUGUAUUACCCUAGUGGUCGACCGGUCUGAUGAGUCUUCGCGCAGACGAAACAGC [UCGCGC]	2.01 ± 0.035	1.8 ± 0.024
GCUGUCACCGGUGUAUUACCCUAGUGGUCGACCGGUCUGAUGAGUCUUCGCGGAGACGAAACAGC [UCGCGG]	1.93 ± 0.1	1.78 ± 0.037
GCUGUCACCGGUGUAUUACCCUAGUGGUCGACCGGUCUGAUGAGUCUUCGCGAAGACGAAACAGC [UCGCGA]	1.89 ± 0.03	1.69 ± 0.071
GCUGUCACCGGUGUAUUACCCUAGUGGUCGACCGGUCUGAUGAGUCUUCGCCGAGACGAAACAGC [UCGCCG]	2 ± 0.035	1.841 ± 0.008
GCUGUCACCGGUGUAUUACCCUAGUGGUCGACCGGUCUGAUGAGUCUUCGCCAAGACGAAACAGC [UCGCCA]	2.016 ± 0.0013	1.81 ± 0.034
GCUGUCACCGGUGUAUUACCCUAGUGGUCGACCGGUCUGAUGAGUCUUCGCCCAGACGAAACAGC [UCGCCC]	1.981 ± 0.01	1.99 ± 0.069
GCUGUCACCGGUGUAUUACCCUAGUGGUCGACCGGUCUGAUGAGUCUGCGCUAAGACGAAACAGC [GCGCUA]	1.88 ± 0.067	1.68 ± 0.031
GCUGUCACCGGUGUAUUACCCUAGUGGUCGACCGGUCUGAUGAGUCUGCGCAUAGACGAAACAGC [GCGCAU]	1.89 ± 0.026	1.55 ± 0.044
GCUGUCACCGGUGUAUUACCCUAGUGGUCGACCGGUCUGAUGAGUCUGCGCAAAGACGAAACAGC [GCGCAA]	1.873 ± 0.014	1.52 ± 0.023
GCUGUCACCGGUGUAUUACCCUAGUGGUCGACCGGUCUGAUGAGUCUACGCGAAGACGAAACAGC [ACGCGA]	1.77 ± 0.072	1.29 ± 0.05
GCUGUCACCGGUGUAUUACCCUAGUGGUCGACCGGUCUGAUGAGUCUACGCGUAGACGAAACAGC [ACGCGU]	1.95 ± 0.021	1.57 ± 0.096
GCUGUCACCGGUGUAUUACCCUAGUGGUCGACCGGUCUGAUGAGUCUUCGCUAAGACGAAACAGC [UCGCUA]	1.96 ± 0.037	1.725 ± 0.0084
GCUGUCACCGGUGUAUUACCCUAGUGGUCGACCGGUCUGAUGAGUCUCCGCUCAGACGAAACAGC [CCGCUC]	2.005 ± 0.0034	1.963 ± 0.019
GCUGUCACCGGUGUAUUACCCUAGUGGUCGACCGGUCUGAUGAGUCUCCGCCUAGACGAAACAGC [CCGCCU]	1.94 ± 0.025	1.95 ± 0.051
GCUGUCACCGGUGUAUUACCCUAGUGGUCGACCGGUCUGAUGAGUCUCCGCCAAGACGAAACAGC [CCGCCA]	1.97 ± 0.045	1.94 ± 0.053

Variant	normalized RNA/DNA level with ligand (log10) (hypoxanthine [1])	normalized RNA/DNA level without ligand (log10) (hypoxanthine [2])
GCUGUCACCGGUGUAUUACCCUAGUGGUCGACCGGUCUGAUGAGUCUCCGCCCAGACGAAACAGC [CCGCCC]	2.025 ± 0.013	1.99 ± 0.044
GCUGUCACCGGUGUAUUACCCUAGUGGUCGACCGGUCUGAUGAGUCUCCGCCGAGACGAAACAGC [CCGCCG]	1.956 ± 0.016	1.66 ± 0.037
GCUGUCACCGGUGUAUUACCCUAGUGGUCGACCGGUCUGAUGAGUCUGCGCCUAGACGAAACAGC [GCGCCU]	2 ± 0.055	1.78 ± 0.052
GCUGUCACCGGUGUAUUACCCUAGUGGUCGACCGGUCUGAUGAGUCUGCGCCAAGACGAAACAGC [GCGCCA]	1.97 ± 0.025	1.711 ± 0.01
GCUGUCACCGGUGUAUUACCCUAGUGGUCGACCGGUCUGAUGAGUCUGCGCCGAGACGAAACAGC [GCGCCG]	1.91 ± 0.03	1.44 ± 0.017
GCUGUCACCGGUGUAUUACCCUAGUGGUCGACCGGUCUGAUGAGUCUACGCUAAGACGAAACAGC [ACGCUA]	1.948 ± 0.0038	1.69 ± 0.063
GCUGUCACCGGUGUAUUACCCUAGUGGUCGACCGGUCUGAUGAGUCUGCGCGAAGACGAAACAGC [GCGCGA]	1.844 ± 0.0031	1.51 ± 0.025
GCUGUCACCGGUGUAUUACCCUAGUGGUCGACCGGUCUGAUGAGUCUGCGCGCAGACGAAACAGC [GCGCGC]	1.93 ± 0.082	1.68 ± 0.026
GCUGUCACCGGUGUAUUACCCUAGUGGUCGACCGGUCUGAUGAGUCUGCGCGUAGACGAAACAGC [GCGCGU]	1.92 ± 0.064	1.58 ± 0.12
GCUGUCACCGGUGUAUUACCCUAGUGGUCGACCGGUCUGAUGAGUCUACGAUUAGACGAAACAGC [ACGAUU]	1.837 ± 0.0076	1.32 ± 0.019
GCUGUCACCGGUGUAUUACCCUAGUGGUCGACCGGUCUGAUGAGUCUACGAUCAGACGAAACAGC [ACGAUC]	1.963 ± 0.0088	1.89 ± 0.013
GCUGUCACCGGUGUAUUACCCUAGUGGUCGACCGGUCUGAUGAGUCUUCGAUGAGACGAAACAGC [UCGAUG]	1.922 ± 0.011	1.62 ± 0.033
GCUGUCACCGGUGUAUUACCCUAGUGGUCGACCGGUCUGAUGAGUCUUCGAUUAGACGAAACAGC [UCGAUU]	1.912 ± 0.013	1.55 ± 0.12
GCUGUCACCGGUGUAUUACCCUAGUGGUCGACCGGUCUGAUGAGUCUCCGCAAAGACGAAACAGC [CCGCAA]	1.95 ± 0.04	1.78 ± 0.046
GCUGUCACCGGUGUAUUACCCUAGUGGUCGACCGGUCUGAUGAGUCUCCGCACAGACGAAACAGC [CCGCAC]	1.964 ± 0.013	1.754 ± 0.0073
GCUGUCACCGGUGUAUUACCCUAGUGGUCGACCGGUCUGAUGAGUCUCCGCAUAGACGAAACAGC [CCGCAU]	1.96 ± 0.048	1.786 ± 0.0041
GCUGUCACCGGUGUAUUACCCUAGUGGUCGACCGGUCUGAUGAGUCUCCGCGUAGACGAAACAGC [CCGCGU]	1.97 ± 0.023	1.71 ± 0.064
GCUGUCACCGGUGUAUUACCCUAGUGGUCGACCGGUCUGAUGAGUCUCCGCGCAGACGAAACAGC [CCGCGC]	1.963 ± 0.0058	1.7 ± 0.06
GCUGUCACCGGUGUAUUACCCUAGUGGUCGACCGGUCUGAUGAGUCUCCGCGAAGACGAAACAGC [CCGCGA]	1.88 ± 0.018	1.62 ± 0.016
GCUGUCACCGGUGUAUUACCCUAGUGGUCGACCGGUCUGAUGAGUCUUCGCACAGACGAAACAGC [UCGCAC]	1.97 ± 0.069	1.827 ± 0.014
GCUGUCACCGGUGUAUUACCCUAGUGGUCGACCGGUCUGAUGAGUCUUCGCAUAGACGAAACAGC [UCGCAU]	1.87 ± 0.022	1.68 ± 0.018
